The text below walks through data of paper PMC3998512 (DNA repair, 2013).

One test addresses GST tagged human Cdk1 (human, UniProt P06493 1-297). Kind of test: far-Western, overlay or dot blot.
In a further test the target is His tagged human PCNA (human, UniProt P12004 1-261). Kind of test: far-Western, overlay or dot blot.
Chain of His tagged human PCNA (P12004 whole entry): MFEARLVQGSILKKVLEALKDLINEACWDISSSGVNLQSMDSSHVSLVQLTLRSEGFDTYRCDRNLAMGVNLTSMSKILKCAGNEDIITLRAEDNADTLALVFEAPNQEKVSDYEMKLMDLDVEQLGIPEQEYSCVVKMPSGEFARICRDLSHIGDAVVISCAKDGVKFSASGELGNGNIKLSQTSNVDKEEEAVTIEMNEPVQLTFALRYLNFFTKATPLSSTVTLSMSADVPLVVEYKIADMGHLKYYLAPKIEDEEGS

Chain of GST tagged human Cdk1 (P06493 whole entry): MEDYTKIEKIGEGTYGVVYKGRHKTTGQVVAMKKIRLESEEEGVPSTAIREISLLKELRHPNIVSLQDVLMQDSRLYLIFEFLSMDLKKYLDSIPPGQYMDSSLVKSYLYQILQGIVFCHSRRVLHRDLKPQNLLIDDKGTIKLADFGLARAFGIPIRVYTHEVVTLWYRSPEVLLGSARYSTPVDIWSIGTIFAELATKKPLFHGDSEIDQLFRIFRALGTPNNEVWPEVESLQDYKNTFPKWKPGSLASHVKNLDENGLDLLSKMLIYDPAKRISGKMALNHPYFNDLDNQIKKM

B1: His tagged human Δ16mtSSB (mtSSB lacking 16 N-terminal amino acids) (natural protein, UniProt Q04837 17-148, looked up)
chain: ESETTTSLVLERSLNRVHLLGRVGQDPVLRQVEGKNPVTIFSLATNEMWRSGDSEVYQLGDVSQKTTWHRISVFRPGLRDVAYQYVKKGSRIYLEGKIDYGEYMDKNNVRRQATTIIADNIIFLSDQTKEKE
Regarding B1, the binding result in the test with GST tagged human Cdk1 is “binds”.

B2: human recombinant Δ80AAG (AAG lacking the first 80 amino acids) (domain or fragment, UniProt P29372 81-298, looked up)
chain: GHLTRLGLEFFDQPAVPLARAFLGQVLVRRLPNGTELRGRIVETEAYLGPEDEAAHSRGGRQTPRNRGMFMKPGTLYVYIIYGMYFCMNISSQGDGACVLLRALEPLEGLETMRQLRSTLRKGTASRVLKDRELCSGPSKLCQALAINKSFDQRDLAQDEAVWLERGPLEPSEPAVVAAARVGVGHAGEWARKPLRFYVRGSPWVSVVDRVAEQDTQA
Consider B2, for which the binding result with His tagged human PCNA is given as “binds”.
